This assay addresses cytochrome b558 (human (endogenous in neutrophils)) (UniProt P04839).
Sequence of UniProt P04839 (P04839 whole entry, chain 1 of 2): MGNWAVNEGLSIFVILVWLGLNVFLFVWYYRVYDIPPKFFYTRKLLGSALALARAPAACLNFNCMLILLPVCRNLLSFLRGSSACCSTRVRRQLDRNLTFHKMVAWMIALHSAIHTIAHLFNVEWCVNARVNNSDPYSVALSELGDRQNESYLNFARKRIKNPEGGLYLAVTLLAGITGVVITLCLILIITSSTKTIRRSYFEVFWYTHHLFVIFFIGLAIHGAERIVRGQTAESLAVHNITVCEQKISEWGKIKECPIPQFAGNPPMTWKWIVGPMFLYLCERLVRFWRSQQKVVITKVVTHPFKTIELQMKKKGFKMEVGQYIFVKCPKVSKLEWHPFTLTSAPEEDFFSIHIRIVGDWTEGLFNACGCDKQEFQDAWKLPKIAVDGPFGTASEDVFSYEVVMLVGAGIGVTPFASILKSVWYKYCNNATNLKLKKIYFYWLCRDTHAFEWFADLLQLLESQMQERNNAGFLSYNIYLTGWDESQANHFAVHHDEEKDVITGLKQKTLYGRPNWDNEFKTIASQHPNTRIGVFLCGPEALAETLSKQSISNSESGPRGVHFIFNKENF
Sequence of UniProt P04839 (P13498 whole entry, chain 2 of 2, further chain): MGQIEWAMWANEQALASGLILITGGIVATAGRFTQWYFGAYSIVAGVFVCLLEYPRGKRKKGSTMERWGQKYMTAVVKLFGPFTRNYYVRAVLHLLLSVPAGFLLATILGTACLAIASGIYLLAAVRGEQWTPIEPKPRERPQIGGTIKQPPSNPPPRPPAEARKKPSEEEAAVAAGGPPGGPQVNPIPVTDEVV

For the substance “rS100A9-A8 chimera (full length) (from UniProt P05109 1-93)”, the constitutive NADPH oxidase turnover (without arachidonic acid) of cytochrome b558 washed on the heparin matrix with the calcium loaded chimera instead of cytosol (control without washing 3.7 s^-1) was found to be 17 s⁻¹.

Values taken from publication PMC3393751.
